Laboratory results: article PMC13385800 (2026)

B1: TBLR1-LgBiT wild type [not stated] / SETD5-SmBiT [not stated] (parent complex)
chain 1: MSISSDEVNFLVYRYLQESGFSHSAFTFGIESHISQSNINGALVPPAALISIIQKGLQYVEAEVSINEDGTLFDGRPIESLSLIDAVMPDVVQTRQQAYRDKLAQQQAAAAAAAAAAASQQGSAKNGENTANGEENGAHTIANNHTDMMEVDGDVEIPPNKAVVLRGHESEVFICAWNPVSDLLASGSGDSTARIWNLSENSTSGSTQLVLRHCIREGGQDVPSNKDVTSLDWNSEGTLLATGSYDGFARIWTKDGNLASTLGQHKGPIFALKWNKKGNFILSAGVDKTTIIWDAHTGEAKQQFPFHSAPALDVDWQSNNTFASCSTDMCIHVCKLGQDRPIKTFQGHTNEVNAIKWDPTGNLLASCSDDMTLKIWSMKQDNCVHDLQAHNKEIYTIKWSPTGPGTNNPNANLMLASASFDSTVRLWDVDRGICIHTLTKHQEPVYSVAFSPDGRYLASGSFDKCVHIWNTQTGALVHSYRGTGGIFEVCWNAAGDKVGASASDGSVCVLDLRK
chain 2: MSIAIPLGVTTSDTSYSDMAAGSDPESVEASPAVNEKSVYSTHNYGTTQRHGCRGLPYATIIPRSDLNGLPSPVEERCGDSPNSEGETVPTWCPCGLSQDGFLLNCDKCRGMSRGKVIRLHRRKQDNISGGDSSATESWDEELSPSTVLYTATQHTPTSITLTVRRTKPKKRKKSPEKGRAAPKTKKIKNSPSEAQNLDENTTEGWENRIRLWTDQYEEAFTNQYSADVQNALEQHLHSSKEFVGKPTILDTINKTELACNNTVIGSQMQLQLGRVTRVQKHRKILRAARDLALDTLIIEYRGKVMLRQQFEVNGHFFKKPYPFVLFYSKFNGVEMCVDARTFGNDARFIRRSCTPNAEVRHMIADGMIHLCIYAVSAITKDAEVTIAFDYEYSNCNYKVDCACHKGNRNCPIQKRNPNATELPLLPPPPSLPTIGAETRRRKARRKELEMEQQNEASEENNDQQSQEVPEKVTVSSDHEEVDNPEEKPEEEKEEVIDDQENLAHSRRTREDRKVEAIMHAFENLEKRKKRRDQPLEQSNSDVEITTTTSETPVGEETKTEAPESEVSNSVSNVTIPSTPQSVGVNTRRSSQAGDIAAEKLVPKPPPAKPSRPRPKSRISRYRTSSAQRLKRQKQANAQQAELSQAALEEGGSNSLVTPTEAGSLDSSGENRPLTGSDPTVVSITGSHVNRAASKYPKTKKYLVTEWLNDKAEKQECPVECPLRITTDPTVLATTLNMLPGLIHSPLICTTPKHYIRFGSPFIPERRRRPLLPDGTFSSCKKRWIKQALEEGMTQTSSVPQETRTQHLYQSNENSSSSSICKDNADLLSPLKKWKSRYLMEQNVTKLLRPLSPVTPPPPNSGSKSPQLATPGSSHPGEEECRNGYSLMFSPVTSLTTASRCNTPLQFELCHRKDLDLAKVGYLDSNTNSCADRPSLLNSGHSDLAPHPSLGPTSETGFPSRSGDGHQTLVRNSDQAFRTEFNLMYAYSPLNAMPRADGLYRGSPLVGDRKPLHLDGGYCSPAEGFSSRYEHGLMKDLSRGSLSPGGERACEGVPSAPQNPPQRKKVSLLEYRKRKQEAKENSAGGGGDSAQSKSKSAGAGQGSSNSVSDTGAHGVQGSSARTPSSPHKKFSPSHSSMSHLEAVSPSDSRGTSSSHCRPQENISSRWMVPTSVERLREGGSIPKVLRSSVRVAQKGEPSPTWESNITEKDSDPADGEGPETLSSALSKGATVYSPSRYSYQLLQCDSPRTESQSLLQQSSSPFRGHPTQSPGYSYRTTALRPGNPPSHGSSESSLSSTSYSSPAHPVSTDSLAPFTGTPGYFSSQPHSGNSTGSNLPRRSCPSSAASPTLQGPSDSPTSDSVSQSSTGTLSSTSFPQNSRSSLPSDLRTISLPSAGQSAVYQASRVSAVSNSQHYPHRGSGGVHQYRLQPLQGSGVKTQTGLS

Variants of: B1
Test: NanoLuc complementation assay; n = 6–7 independent transfections per TBLR1 mutant; read off a plot

| ratio to parent | Variant |
| --- | --- |
| ~1.2 | chain 1 MSISSDEVNFLVYRYLQESGFSHSAFTFGIESHISQSNINGALVPPAALISIIQKGLQYVEAEVSINEDGTLFDGRPIESLSLIDAVMPDVVQTRQQAYRDKLAQQQAAAAAAAAAAASQQGSAKNGENTANGEENGAHTIANNHTDMMEVDGDVEIPPNKAVVLRGHESEVFICAWNPVSDLLASGSGDSTARIWNLSENSTSGSTQLVLRHCIREGGQDVPSNKDVTSLDWNSEGTLLATGSCDGFARIWTKDGNLASTLGQHKGPIFALKWNKKGNFILSAGVDKTTIIWDAHTGEAKQQFPFHSAPALDVDWQSNNTFASCSTDMCIHVCKLGQDRPIKTFQGHTNEVNAIKWDPTGNLLASCSDDMTLKIWSMKQDNCVHDLQAHNKEIYTIKWSPTGPGTNNPNANLMLASASFDSTVRLWDVDRGICIHTLTKHQEPVYSVAFSPDGRYLASGSFDKCVHIWNTQTGALVHSYRGTGGIFEVCWNAAGDKVGASASDGSVCVLDLRK [chain 1 Y245C] |
| ~0.05 | chain 1 MSISSDEVNFLVYRYLQESGFSHSAFTFGIESHISQSNINGALVPPAALISIIQKGLQYVEAEVSINEDGTLFDGRPIESLSLIDAVMPDVVQTRQQAYRDKLAQQQAAAAAAAAAAASQQGSAKNGENTANGEENGAHTIANNHTDMMEVDGDVEIPPNKAVVLRGHESEVFICAWNPVSDLLASGSGDSTARIWNLSENSTSGSTQLVLRHCIREGGQDVPSNKDVTSLDWNSEGTLLATGSYDGFARIWTKDGNLASTLGQHKGPIFALKWNKKGNFILSAGVDKTTIIWDAHTGEAKQQFPFHSAPALDVDWQSNNTFASCSTDMCIHVCKLGQDRPIKTFQGHTNEVNAIKWDPTGNLLASCSDNMTLKIWSMKQDNCVHDLQAHNKEIYTIKWSPTGPGTNNPNANLMLASASFDSTVRLWDVDRGICIHTLTKHQEPVYSVAFSPDGRYLASGSFDKCVHIWNTQTGALVHSYRGTGGIFEVCWNAAGDKVGASASDGSVCVLDLRK [chain 1 D370N] |
| ~1.3 | chain 1 MSISSDEVNFLVYRYLQESGFSHSAFTFGIESHISQSNINGALVPPAALISIIQKGLQYVEAEVSINEDGTLFDGRPIESLSLIDAVMPDVVQTRQQAYRDKLAQQQAAAAAAAAAAASQQGSAKNGENTANGEENGAHTIANNHTDMMEVDGDVEIPPNKAVVLRGHESEVFICAWNPVSDLLASGSGDSTARIWNLSENSTSGSTQLVLRHCIREGGQDVPSNKDVTSLDWNSEGTLLATGSYDGFARIWTKDGNLASTLGQHKGPIFALKWNKKGNFILSAGVDKTTIIWDAHTGEAKQQFPFHSAPALDVDWQSNNTFASCSTDMCIHVCKLGQDRPIKTFQGHTNEVNAIKWDPTGNLLASCSDDMTLKIWSMKQDNCVHDLQAHNKEIYTIKWSPTGPGTNNPNANLMLASASFDSTVRLWDVDRGICIHTLTKHQEPVCSVAFSPDGRYLASGSFDKCVHIWNTQTGALVHSYRGTGGIFEVCWNAAGDKVGASASDGSVCVLDLRK [chain 1 Y446C] |
| ~0.05 | chain 1 MSISSDEVNFLVYRYLQESGFSHSAFTFGIESHISQSNINGALVPPAALISIIQKGLQYVEAEVSINEDGTLFDGRPIESLSLIDAVMPDVVQTRQQAYRDKLAQQQAAAAAAAAAAASQQGSAKNGENTANGEENGAHTIANNHTDMMEVDGDVEIPPNKAVVLRGHESEVFICAWNPVSDLLASGSGDSTARIWNLSENSTSGSTQLVLRHCIREGGQDVPSNKDVTSLDWNSEGTLLATGSYDGFARIWTKDGNLASTLGQHKGPIFALKWNKKGNFIPSAGVDKTTIIWDAHTGEAKQQFPFHSAPALDVDWQSNNTFASCSTDMCIHVCKLGQDRPIKTFQGHTNEVNAIKWDPTGNLLASCSDDMTLKIWSMKQDNCVHDLQAHNKEIYTIKWSPTGPGTNNPNANLMLASASFDSTVRLWDVDRGICIHTLTKHQEPVYSVAFSPDGRYLASGSFDKCVHIWNTQTGALVHSYRGTGGIFEVCWNAAGDKVGASASDGSVCVLDLRK [chain 1 L282P] |
| ~1.1 | chain 1 MSISSDEVNFLVYRYLQESGFSHSAFTFGIESHISQSNINGALVPPAALISIIQKGLQYVEAEVSINEDGTLFDGRPIESLSLIDAVMPDVVQTRQQAYRDKLAQQQAAAAAAAAAAASQQGSAKNGENTANGEENGAHTIANNHTDMMEVDGDVEIPPNKAVVLRGHESEVFICAWNPVSDLLASGSGDSTARIWNLSENSTSGSTQLVLRHCIREGGQDVPSNKDVTSLDWNSEGTLLATGSYDGFARIWTKDGNLASTLGQHKGPIFALKWNKKGNFILSAGVDKTTIIWDAHTGEAKQQFPFHSAPALDVDWQSNNSFASCSTDMCIHVCKLGQDRPIKTFQGHTNEVNAIKWDPTGNLLASCSDDMTLKIWSMKQDNCVHDLQAHNKEIYTIKWSPTGPGTNNPNANLMLASASFDSTVRLWDVDRGICIHTLTKHQEPVYSVAFSPDGRYLASGSFDKCVHIWNTQTGALVHSYRGTGGIFEVCWNAAGDKVGASASDGSVCVLDLRK [chain 1 T321S] |

Variants of: B1
Test: co-immunoprecipitation, mass spectrometry; TBLR1-null Flp-In T-REx 293 cells; n = 3 independent transfections; read off a plot

| screen value | Variant |
| --- | --- |
| ~6.9 log2 | chain 1 MSISSDEVNFLVYRYLQESGFSHSAFTFGIESHISQSNINGALVPPAALISIIQKGLQYVEAEVSINEDGTLFDGRPIESLSLIDAVMPDVVQTRQQAYRDKLAQQQAAAAAAAAAAASQQGSAKNGENTANGEENGAHTIANNHTDMMEVDGDVEIPPNKAVVLRGHESEVFICAWNPVSDLLASGSGDSTARIWNLSENSTSGSTQLVLRHCIREGGQDVPSNKDVTSLDWNSEGTLLATGSYDGFARIWTKDGNLASTLGQHKGPIFALKWNKKGNFILSAGVDKTTIIWDAHTGEAKQQFPFHSAPALDVDWQSNNTFASCSTDMCIHVCKLGQDRPIKTFQGHTNEVNAIKWDPTGNLLASCSDNMTLKIWSMKQDNCVHDLQAHNKEIYTIKWSPTGPGTNNPNANLMLASASFDSTVRLWDVDRGICIHTLTKHQEPVYSVAFSPDGRYLASGSFDKCVHIWNTQTGALVHSYRGTGGIFEVCWNAAGDKVGASASDGSVCVLDLRK [chain 1 D370N] |
